Measured values published in patent publication US20220411483A1 (Chugai, published 2022).
Numbering of substitutions follows the chain as printed.

Assays:
[1] = biological target: T1, Human IgA (recombinant, H (WT)-IgA1 / L (WT)) (human); experiment: SPR (Biacore T200), antibody on Protein A/G, hIgA analyte, 37C; pH 8.0, 10 mM Ca; 1:1 binding model
T1 construct: used as the antigen (analyte); also called hIgA
Method: (§1) The hIgA-binding activities (dissociation constant KD (M)) of the antibodies isolated in (1-3) were assessed using Biacore T200 (GE Healthcare). Measurements were performed using a 0.05% tween20, 20 mmol/L ACES, 150 mmol/L NaCl (pH 7.4 or pH 5.8) solution containing 3 μM or 1.2 mM CaCl₂, or a 0.05% tween20, 20 mmol/L ACES, 150 mmol/L NaCl (pH 8.0) solution containing 0.1 μM or 10 mM CaCl₂ as a running buffer.
(§2) An appropriate amount of recombinant Protein A/G (Thermo Scientific) was immobilized onto a Sensor chip CMS (GE Healthcare) by an amino coupling method, and the antibody was allowed to bind thereto. Then, an appropriate concentration of hIgA (described in (1-1)) was injected as an analyte and allowed to interact with the antibody on the sensor chip. The measurement was carried out at 37° C. After measurement, 10 mmol/L glycine-HCl (pH 1.5) was injected to regenerate the sensor chip. From the measurement result, the dissociation constant KD (M) was calculated by curve fitting analysis and equilibrium analysis using Biacore T200 Evaluation Software (GE Healthcare).

[2] = biological target: T1, Human IgA (recombinant, H (WT)-IgA1 / L …); experiment: SPR (Biacore T200), antibody on Protein A/G, hIgA analyte, 37C; pH 8.0, 0.1 µM Ca; 1:1 binding model
Method: as §1, §2

[3] = biological target: T1, Human IgA (recombinant, H (WT)-IgA1 / L …); experiment: SPR (Biacore T200), antibody on Protein A/G, hIgA analyte, 37C; pH 7.4, 1.2 mM Ca; 1:1 binding model
Method: as §1, §2

[4] = biological target: T1, Human IgA (recombinant, H (WT)-IgA1 / L …); experiment: SPR (Biacore T200), antibody on Protein A/G, hIgA analyte, 37C; pH 5.8, 1.2 mM Ca; 1:1 binding model
Method: as §1, §2

[5] = biological target: T1, Human IgA (recombinant, H (WT)-IgA1 / L …); experiment: SPR (Biacore T200), antibody on Protein A/G, hIgA analyte, 37C; pH 5.8, 3 µM Ca; 1:1 binding model
Method: as §1, §2

[6] = biological target: T1, Human IgA (recombinant, H (WT)-IgA1 / L …); experiment: SPR (Biacore T200), antibody on Protein A/G, hIgA analyte, 37C; pH 7.4, 3 µM Ca; 1:1 binding model
Method: as §1, §2

[7] = biological target: T1, Human IgA (recombinant, H (WT)-IgA1 / L …); experiment: SPR (Biacore T200), antibody on Protein A/G, hIgA analyte, 37C; pH 7.4, 1.2 mM Ca; 1:1 binding model; pH 7.4, 1.2 mM Ca; 37 C; 1:1 binding model
Method: as §1, §2

[8] = biological target: T1, Human IgA (recombinant, H (WT)-IgA1 / L …); experiment: SPR (Biacore T200), antibody on Protein A/G, hIgA analyte, 37C; pH 5.8, 3 µM Ca; Steady State Affinity
Method: as §1, §2

[9] = biological target: T1, Human IgA (recombinant, H (WT)-IgA1 / L …); experiment: SPR (Biacore T200), antibody on Protein A/G, hIgA analyte, 37C; pH 5.8, 1.2 mM Ca; Steady State Affinity
Method: as §1, §2

[10] = biological target: T1, Human IgA (recombinant, H (WT)-IgA1 / L …); experiment: SPR (Biacore T200), antibody on Protein A/G, hIgA analyte, 37C; pH 7.4, 3 µM Ca; Steady State Affinity
Method: as §1, §2

human IgA (hIgA) = biological target: T2, human IgA (hIgA) (human); experiment: SPR (Reference Example 3)
T2 construct: recombinant antigen
Method: as §1, §2

human IgE [11] = biological target: T3, human IgE (human); experiment: SPR Biacore T200, 37 C, hIgE on chip, antibody analyte; pH 5.8, 1.2 mM Ca
T3 construct: recombinant antigen; its variable region is from an anti-human glypican 3 antibody; also called hIgE
Text: (§3) 1.2 mmol/1 CaCl₂/0.05% tween20, 20 mmol/l ACES, 150 mmol/l NaCl, pH 7.4 [0568] 1.2 mmol/1 CaCl₂/0.05% tween20, 20 mmol/l ACES, 150 mmol/l NaCl, pH 5.8 [0569] 3 μmol/l CaCl₂/0.05% tween20, 20 mmol/l ACES, 150 mmol/l NaCl, pH 5.8
(§4) A peptide produced by adding biotin to Lys present at the C terminus of a chemically synthesized human glypican 3 protein-derived sequence (SEQ ID NO: 12) (hereinafter written as “biotinylated GPC3 peptide”) added at an appropriate amount was immobilized onto Sensor chip SA (GE Healthcare) utilizing the affinity between streptavidin and biotin. An appropriate concentration of human IgE was injected and trapped with the biotinylated GPC3 peptide to immobilize human IgE onto the chip. […] Then, 10 mmol/L glycine-HCl (pH 1.5) was injected to regenerate the sensor chip. All of the assay for the interaction was performed at 37° C. Using Biacore T200 Evaluation Software (GE Healthcare), the assay results were analyzed by curve fitting to determine the binding rate constant ka (1/Ms) and dissociation rate constant kd (1/s). Dissociation constant KD (M) was calculated from the above constants.

human IgE [12] = biological target: T3, human IgE; experiment: SPR Biacore T200, 37 C; pH/Ca dependency
Text: as §3, §4

human IgE [13] = biological target: T3, human IgE; experiment: SPR Biacore T200, 37 C; pH dependency
Text: as §3, §4

human IgE [14] = biological target: T3, human IgE; experiment: SPR Biacore T200, 37 C, hIgE on chip, antibody analyte; pH 5.8, 3 µM Ca
Text: as §3, §4

human IgE [15] = biological target: T3, human IgE; experiment: SPR Biacore T200, 37 C, hIgE on chip, antibody analyte; pH 7.4, 1.2 mM Ca
Text: as §3, §4

[16] = biological target: T4, human FcγRIIb extracellular domain with C-terminal His tag (human, UniProt P31994 43-217); experiment: SPR, antibody captured, FcgR analyte
T4 construct: extracellular domain; also called FcgRIIb
T4 sequence (looked up): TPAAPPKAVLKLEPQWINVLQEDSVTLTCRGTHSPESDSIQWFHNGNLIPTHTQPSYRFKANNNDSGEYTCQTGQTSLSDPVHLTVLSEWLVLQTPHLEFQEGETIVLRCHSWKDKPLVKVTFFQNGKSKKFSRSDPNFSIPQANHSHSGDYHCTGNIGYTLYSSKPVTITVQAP

[17] = biological target: T5, human FcγRIa extracellular domain with C-terminal His tag (human, UniProt P12314 16-292); experiment: SPR, antibody captured, FcgR analyte
T5 construct: Whole entry named; also called FcgRIa

[18] = biological target: T6, human FcγRIIIa V type extracellular domain with C-terminal His tag (human, UniProt P08637 17-208); experiment: SPR, antibody captured, FcgR analyte
T6 construct: extracellular domain; also called FcgRIIIaV

[19] = biological target: T7, human FcγRIIa R type extracellular domain with C-terminal His tag (human, UniProt P12318 34-217); experiment: SPR, antibody captured, FcgR analyte
T7 construct: extracellular domain; also called FcgRIIaR
T7 sequence (looked up): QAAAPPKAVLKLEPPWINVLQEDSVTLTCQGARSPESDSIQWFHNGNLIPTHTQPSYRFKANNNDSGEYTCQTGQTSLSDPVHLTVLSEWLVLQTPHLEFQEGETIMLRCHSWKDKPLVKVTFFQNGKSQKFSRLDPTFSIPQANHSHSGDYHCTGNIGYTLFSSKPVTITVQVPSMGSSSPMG

[20] = biological target: T8, human FcγRIIa H type extracellular domain with C-terminal His tag (human, UniProt P12318 34-217); experiment: SPR, antibody captured, FcgR analyte
T8 construct: extracellular domain; also called FcgRIIaH
T8 sequence (looked up): T7 sequence (looked up) with R134H

[21] = biological target: T4, human FcγRIIb extracellular domain with …; experiment: SPR, KD of IL6R-G1d/IL6R-L divided by KD of variant
[22] = biological target: T5, human FcγRIa extracellular domain with …; experiment: as above
[23] = biological target: T6, human FcγRIIIa V type extracellular …; experiment: as above
[24] = biological target: T7, human FcγRIIa R type extracellular …; experiment: as above
[25] = biological target: T8, human FcγRIIa H type extracellular …; experiment: as above

T3 sequence (heavy, as listed by the source, chain 1 of 2, other chains not shown): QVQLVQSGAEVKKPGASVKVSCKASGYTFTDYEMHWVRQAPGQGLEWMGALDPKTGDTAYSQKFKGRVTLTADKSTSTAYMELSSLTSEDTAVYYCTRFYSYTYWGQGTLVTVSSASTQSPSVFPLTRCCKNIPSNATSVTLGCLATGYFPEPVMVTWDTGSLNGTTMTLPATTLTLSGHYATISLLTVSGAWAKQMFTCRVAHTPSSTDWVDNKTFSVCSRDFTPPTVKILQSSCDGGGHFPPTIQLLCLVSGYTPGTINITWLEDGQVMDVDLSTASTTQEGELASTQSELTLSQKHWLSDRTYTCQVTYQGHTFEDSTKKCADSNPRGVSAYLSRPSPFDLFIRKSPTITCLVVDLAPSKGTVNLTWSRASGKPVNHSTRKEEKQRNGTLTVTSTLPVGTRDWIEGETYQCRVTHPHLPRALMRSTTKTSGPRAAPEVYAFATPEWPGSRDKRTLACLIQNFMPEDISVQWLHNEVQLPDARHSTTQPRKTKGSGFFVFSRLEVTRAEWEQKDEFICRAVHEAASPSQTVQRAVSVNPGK
T1 sequence (VH, as listed by the source): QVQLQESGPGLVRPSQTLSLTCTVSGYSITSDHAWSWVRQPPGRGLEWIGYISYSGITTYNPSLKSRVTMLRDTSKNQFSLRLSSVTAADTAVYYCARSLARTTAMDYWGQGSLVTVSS
T5 sequence (P12314 16-292): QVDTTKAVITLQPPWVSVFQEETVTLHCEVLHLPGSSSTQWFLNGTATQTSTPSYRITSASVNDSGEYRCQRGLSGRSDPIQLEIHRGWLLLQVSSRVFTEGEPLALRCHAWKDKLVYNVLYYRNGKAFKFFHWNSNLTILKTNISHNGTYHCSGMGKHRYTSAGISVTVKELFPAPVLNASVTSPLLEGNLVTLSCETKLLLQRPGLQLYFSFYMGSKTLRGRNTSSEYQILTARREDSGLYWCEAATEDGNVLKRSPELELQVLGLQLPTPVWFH
T6 sequence (P08637 17-208 F176V): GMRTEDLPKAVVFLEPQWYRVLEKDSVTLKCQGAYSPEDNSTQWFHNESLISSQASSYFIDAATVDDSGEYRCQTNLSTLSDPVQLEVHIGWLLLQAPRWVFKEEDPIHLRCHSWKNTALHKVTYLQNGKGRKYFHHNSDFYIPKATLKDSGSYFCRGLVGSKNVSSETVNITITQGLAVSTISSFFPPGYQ
T2 sequence (VH, as listed by the source): as the sequence (VH, as listed by the source) above

B1: GA1-IgG1 (antibody, V domains shown)
VH: EVQLVQSGAEVKKPGSSVKVSCKASGGTFSSYAISWVRQAPGQGLEWMGGIIPIFGTANYAQKFQGRVTITADESTSTAYMELSSLRSEDTAVYYCARVAPGNWGSPYFDYWGQGTLVTVSS
VL: DIQMTQSPSSLSASVGDRVTITCRASQSIEDDLAWYQQKPGKAPKLLIYEASSLQSGVPSRFSGSGSGTDFTLTISSLQPEDFATYYCQQRDSSPLTFGQGTKVEIKR
Kd [1]: 100 nM
Kd [2]: 220 nM
Kd [3]: 150 nM
Kd [4]: 140 nM
Kd [5]: 150 nM
Kd [6]: 190 nM

B2: GA2-IgG1 (antibody, V domains shown)
VH: QVQLVQSGAEVKKPGSSVKVSCKASGGTFSSYAISWVRQAPGQGLEWMGGIIPIFGTANYAQKFQGRVTITADESTSTAYMELSSLRSEDTAVYYCARPRWETAISSDAFDIWGQGTMVTVSS
VL: B1 VL with E30S, A34N, S53N, R91H, D92S
kon [7]: 400000 M⁻¹ s⁻¹
Kd [8]: 5000 nM
Kd [3]: 39 nM
Kd [9]: 4000 nM
Kd [10]: 6700 nM

B3: GA2-IgG1 (antibody, V domains shown)
VH: B2 VH
VL: B1 VL with E30S, A34N, S53N, R91H, D92S
notes: also called GA-IgG1
Ca-dependent hIgA-binding activity (fold) (human IgA (hIgA)): ≥ 100 times

B4: clone 278 (IgG1) (antibody, V domains shown)
VH: QSLEESGGRLVTPGTPLTLTCTASGFSLSSYHMSWVRQAPGKGLEWIGVINSAGNTYYASWAKGRFTVSKTSTTVDLNLTSLTTEDTATYFCARYVFSSGSHDIWGPGTLVTVSS
VL: AYDMTQTPASVEVAVGGTVTIKCQASQSIGSWLAWYQQKPGQPPKELIYGTSTLESGVPSRFIGSGSGTEFTLTISGVECADAATYYCQQGYSEDNIDNAFGGGTEVVVKR
notes: pH-dependent anti-human IgE antibody with human IgG1 constant region
Kd (human IgE [11]): 2000 nM
koff (human IgE [11]): 0.23 s⁻¹
kon (human IgE [11]): 120000 M⁻¹ s⁻¹
KD(pH 5.8, 3 µM Ca)/KD(pH 7.4, 1.2 mM Ca) (human IgE [12]): 1640 ratio
KD(pH 5.8, 1.2 mM Ca)/KD(pH 7.4, 1.2 mM Ca) (human IgE [13]): 842 ratio
Kd (human IgE [14]): 3900 nM
koff (human IgE [14]): 0.24 s⁻¹
kon (human IgE [14]): 62000 M⁻¹ s⁻¹
Kd (human IgE [15]): 2.4 nM
koff (human IgE [15]): 0.0036 s⁻¹
kon (human IgE [15]): 1.5e+06 M⁻¹ s⁻¹

B5: IL6R-G1dGSS/IL6R-L (antibody, human IgG1, kappa)
heavy: QVQLQESGPGLVKPSETLSLTCAVSGHSISHDHAWSWVRQPPGEGLEWIGFISYSGITNYNPSLQGRVTISRDNSKNTLYLQMNSLRAEDTAVYYCARSLARTTAMDYWGEGTLVTVSSASTKGPSVFPLAPSSKSTSGGTAALGCLVKDYFPEPVTVSWNSGALTSGVHTFPAVLQSSGLYSLSSVVTVPSSSLGTQTYICNVNHKPSNTKVDKKVEPKSCDKTHTCPPCPAPELLGGPSVFLFPPKPKDTLMISRTPEVTCVVVDVSHEDPEVKFNWYVDGVEVHNAKTKPREEQYNSTYRVVSVLTVLHQDWLNGKEYKCKVSNKGLPSSIEKTISKAKGQPREPQVYTLPPSRDELTKNQVSLTCLVKGFYPSDIAVEWESNGQPENNYKTTPPVLDSDGSFFLYSKLTVDKSRWQQGNVFSCSVMHEALHNHYTQKSLSLSP
light: not shown
Kd [16]: 2400 nM
Kd [17]: 0.33 nM
Kd [18]: 1600 nM
Kd [19]: 1400 nM
Kd [20]: 1200 nM
Relative FcgRIIb-binding Activity [21]: 0.9
Relative FcgRIa-binding Activity [22]: 0.97
Relative FcgRIIIaV-binding Activity [23]: 0.231
Relative FcgRIIaR-binding Activity [24]: 0.79
Relative FcgRIIaH-binding Activity [25]: 0.517
